# According to US20240336947:
# B1: R699, mimiviral collagen galactosylhydroxylysyl glucosyltransferase (GGT) (protein)
# chain: MEQSNNDDNLLVLGIGISVHKTDGVLRFEKYCQAHNLQYMIVGEGKKWNGGNLESEAGGGQKINELLIALESIKDNKLIVVCDTYDLIPLSGPEEILRKYRFLTPDNKVVFSSELYCWPDASLVERYPKVDTKYKYLNSGAFMGYRDDIYEMIKNGVKDRDDDQLFFSIKFIETDKIVLDYKCELFQAMYRCNSDLVVHKNRIFNGYTNSYPVFAHGNGPAKKLLNHMEGYFMTEPIDGSSNTINTFKLDNEPKVFFALYVDSNDLSALKQFLGKVASIQYGNKVIYLYDRSDNEQNRKLIQISYPNYHTGVTKYVFDDFKKSDAQFYFLLEQNCIITKKDILHELIMQVKDNHRVISPMIGYEQNSTRTNFWGDIEDGYYKRSENYLDLAKHKVRGLWNVPYVYGVILMHESVVRNWDLSMVKYNDKDMDLCFSLRKHTIFMYMINNNNYGYMV
# Target: deglucosylated type IV collagen
protein,measurement,value
B1,glucosylation of type IV collagen detected by LC-MS with UDP-[UL-13C6]-glucose,"R699 (FIG. 4C,4D) glucosylates collagen peptidyl galactosylhydroxylysine to [13C6]-glucosylgalactosylhydroxylysine"
